Results on four compounds are retold here after publication PMC8423723, “Regulation of cadherin dimerization by chemical fragments as a trigger to inhibit cell adhesion” (Communications Biology, 2021).

The target of assay [1] is C-terminally His-tagged P-cadherin MEC12 (X dimer), on liposomes (human).
Assay [2] concerns the target T1, REC12 (P-cadherin monomer mutant) (Homo sapiens, UniProt P22223).
T1 construct: gene CDH3
The note with it: pH 7.5, 25 °C, 3 mM CaCl2, 5% DMSO; construct printed only as P-cadherin.

In assay [3] the target is T2, REC12 (P-cadherin monomer mutant) (Homo sapiens, UniProt P22223, INS0R).
T2 construct: gene CDH3; EC12 (EC1-EC2, residues 1-241) with Arg inserted at N terminus; biotinylated for chip capture; E. coli Rosetta2(DE3), SUMO tag cut with Ulp1; monomer
Nature of the assay: SPR, Scatchard analysis of equilibrium responses. The assay is classed as binding. A general note: In SPR one partner is held on a chip, and binding of the other changes the refractive index at the surface.

The target of a further assay is T3, EC12 (P-cadherin) (Homo sapiens, UniProt P22223).
T3 construct: gene CDH3; EC1-EC2, residues 1-241, wild type; E. coli, SUMO cut; amine-coupled to CM5 chip
Description: SPR ABA assay, disruption of EC12 dimer on chip. The note with it: 100 µM compound, 2 µM EC12 in solution A. The assay is classed as binding.

The target in assay [4] is P-cadherin MEC12 (X dimer) K14A. Description: SEC-MALS. The note with it: N = 1; parent: est. 33; read off a plot. Background: In gel filtration, larger molecules generally elute earlier.

T1 sequence (P22223 107-348, change not shown): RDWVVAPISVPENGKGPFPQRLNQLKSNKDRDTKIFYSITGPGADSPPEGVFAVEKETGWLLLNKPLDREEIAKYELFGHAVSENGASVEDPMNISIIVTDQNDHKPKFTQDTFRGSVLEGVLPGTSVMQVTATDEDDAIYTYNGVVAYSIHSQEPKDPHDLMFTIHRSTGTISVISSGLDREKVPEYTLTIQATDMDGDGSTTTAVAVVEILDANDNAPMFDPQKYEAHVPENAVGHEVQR
T2 sequence (P22223 107-348, stated change not applied): as the sequence (P22223 107-348, change not shown) above
T3 sequence (P22223 108-348): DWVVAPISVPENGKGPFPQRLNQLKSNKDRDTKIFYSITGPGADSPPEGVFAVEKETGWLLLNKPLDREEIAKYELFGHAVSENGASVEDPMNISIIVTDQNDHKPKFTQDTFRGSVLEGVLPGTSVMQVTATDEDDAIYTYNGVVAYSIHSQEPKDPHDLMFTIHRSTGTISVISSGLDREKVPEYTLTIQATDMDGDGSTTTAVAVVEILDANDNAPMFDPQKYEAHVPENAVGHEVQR

Consider “C-terminally His-tagged P-cadherin MEC12 (X dimer), on liposomes (domain or fragment)”, for which, in assay [1], the kobs of liposome aggregation (optical density at 650 nm after addition of CaCl2, one-phase association), in the absence of Hit 1; no aggregation with EDTA or without MEC12 is 0.0086 and the kobs of liposome aggregation (optical density at 650 nm after addition of CaCl2, one-phase association), in the presence of Hit 1 worked out at 0.0033. As to `NCCc1c[nH]c2ccccc12` [tryptamine], the SPR direct binding entry in assay [2] is “only tryptamine bound to P-cadherin”. With `Cc1[nH]c2ccc(Cl)cc2c1CCN` [Hit 1], the Kd (usually a measure of binding affinity in units of concentration) in assay [3] was approximately 916 µM. At EC12 (P-cadherin), the “SPR ABA assay, disruption of EC12 dimer on chip” value is “These compounds bound to and disrupted the dimerization”.

Consider “P-cadherin MEC12 (X dimer) as used in SEC-MALS and HDX-MS K14A”, for which, in assay [4], the other: molecular weight (SEC-MALS) turned out to be 24 kDa.
